Results published in article PMC8800040.

Target: aflibercept (human)
Test: SPR

Kd: 0.0147 nM
kon: 1.16e+07 M⁻¹ s⁻¹
Substance: human VEGF-A165 (ligand)
